The target in the test is MthK channel (Methanobacterium thermoautotrophicum) (UniProt O27564). In words: single-channel recording in planar lipid bilayers.

By Kd is commonly meant the concentration at which binding is half-saturated. Low values mean tighter binding, high ones weaker binding.

Consider “charybdotoxin (from UniProt P13487 23-59) (peptide)”, for which the dissociation constant (Kd) was 1 nM.
